Laboratory results as given in paper PMC7078309, “New Therapeutic Candidates for the Treatment of Malassezia pachydermatis -Associated Infections” (Scientific Reports, 2020).

Substrate: O=C(O)CCC(=O)C(=O)O
Assay: NAD/NADH quantification kit, Lineweaver-Burk
Type: biochemical, Malassezia pachydermatis
Details: without inhibitor; reverse reaction; 2-OG 15-30 mM; NADH
Text: NAD/NADH quantification kit, Lineweaver-Burk on MpSDH

B1: MpSDH (Malassezia pachydermatis) (protein)
chain: MTGTQALWLRCETKPAEHRSALTPTTAKKLINAGFDITVERDPNRIFDDEEFEKVGCHMAEYHSWPKAPKTTPIIGLKELDTPGPDLEHTHIQFAHCYKHQEGWVDVLARFKRGGGKLYDLEFLEDANGRRVAAFGWHAGFAGAALGLLALAEQVEGKVLGAQTKYPNEEALMEKTREAVRVIRKHRPDGRVTSLIIGALGRCGRGAIDCLEKSGLQSDEIVRWDIQETSAKSGPYQEIIDSDLFVNCIYLSKKIPPFVNKESLQAVGDKRRLGMIVDVSCDTTNPNNPIPVYSINTTFDKPTVAVDGFDKLEVISIDHLPTLLPREASEAFSNDLLPSLLQLPLVTGVAGEEALQHVNEEGKGAVWTRAEALFRKHLAEAEANGA
notes: synthetic gene, C-terminal 6xHN tag (pET6xHN-C), expressed in E. coli BL21, Ni-IMAC, 43 kDa band on SDS-PAGE
B1 gave a Km of 0.25 ± 7.1e-02 mM.
